Substitutions are numbered along the chain they refer to.
B1: Antibody 15 (IgG) (antibody, V domains shown)
VH: EVQLLESGGGLVQPGGSLRLSCAAPGFTFSSYAMSWVRQAPGKGLEWVSAISGGSGGRTYYADSVKGRFTISRDNSKNTLYLQMNSLRAEDTAVYYCARHIAVAGTRGFDYWGRGTLVTVSS
VL: SYVLTQPPSVSVSPGQTASITCSGDKLGDTYASWYRQRSGQSPVLVIYQDDRRPSGIPERFSGSNSGNTATLTISGTHTMDEADYYCLAWDTRTSGAVFGGGTKLTVL
B2: Antibody 10 (scFv) (scFv, V domains shown)
VH: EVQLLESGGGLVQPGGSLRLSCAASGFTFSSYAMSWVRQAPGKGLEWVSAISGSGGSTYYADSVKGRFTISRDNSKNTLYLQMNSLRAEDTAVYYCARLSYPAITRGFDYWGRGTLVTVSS
VL: B1 VL with T30K, R52K
notes: purified scFv
B3: Antibody 9 (scFv) (scFv, V domains shown)
VH: B1 VH with P25S
VL: B1 VL with Y2F, T5S, R52K
notes: purified scFv
B4: Antibody 33 (scFv) (scFv, V domains shown)
VH: B1 VH with R19S, R73K
VL: B1 VL with Q41L, V44A, R52K
notes: purified scFv
B5: Antibody 15 (scFv) (scFv, V domains shown)
VH: B1 VH
VL: B1 VL
notes: purified scFv
B6: Antibody 36 (scFv) (scFv, V domains shown)
VH: EVQLLESGGGLVQPGGSLRLSCAASGFTFSSYAMSWVRQAPGKGLEWVSAISGSGGRTYYADSVKGRFTISRDNSKNTLYLQMNSLRAEDTAVYYCARHIAVAGTRGFDYWGRGTLVTVSS
VL: B1 VL with Y2F, V3M, T5S, R52K
notes: purified scFv
B7: Antibody 12 (scFv) (scFv, V domains shown)
VH: B6 VH
VL: B1 VL with Y2F, V3M, T5S, R52K
notes: purified scFv
B8: Antibody 34 (scFv) (scFv, V domains shown)
VH: B1 VH with F29L
VL: B1 VL with V12A, R52K, S55P, S75R, T106S
notes: purified scFv
B9: Antibody 7 (scFv) (scFv, V domains shown)
VH: B6 VH with S54G
VL: B1 VL with V12A, R52K
notes: purified scFv
B10: Antibody 4 (scFv) (scFv, V domains shown)
VH: B6 VH with L116P
VL: B1 VL with Y2F, R52K
notes: purified scFv
B11: Antibody 26 (scFv) (scFv, V domains shown)
VH: B6 VH with F27L, S31G, T78M
VL: B1 VL with Y2F, R52K, S75G
notes: purified scFv
B12: Antibody 5 (scFv) (scFv, V domains shown)
VH: B6 VH
VL: B1 VL with V107A
notes: purified scFv
B13: Antibody 27 (scFv) (scFv, V domains shown)
VH: B6 VH with H99S, I100T, A101Y, V102F, G104S
VL: B1 VL with R52K
notes: purified scFv
B14: Antibody 2 (scFv) (scFv, V domains shown)
VH: B6 VH
VL: B1 VL
notes: purified scFv
B15: Antibody 3 (scFv) (scFv, V domains shown)
VH: B6 VH
VL: B1 VL with R52K, N68D
notes: purified scFv
B16: Antibody 26 (IgG) (antibody, V domains shown)
VH: B6 VH with F27L, S31G, T78M
VL: B1 VL with Y2F, R52K, S75G
B17: Antibody 9 (IgG) (antibody, V domains shown)
VH: B1 VH with P25S
VL: B1 VL with Y2F, T5S, R52K
B18: Antibody 34 (IgG) (antibody, V domains shown)
VH: B1 VH with F29L
VL: B1 VL with V12A, R52K, S55P, S75R, T106S
B19: Antibody 10 (IgG) (antibody, V domains shown)
VH: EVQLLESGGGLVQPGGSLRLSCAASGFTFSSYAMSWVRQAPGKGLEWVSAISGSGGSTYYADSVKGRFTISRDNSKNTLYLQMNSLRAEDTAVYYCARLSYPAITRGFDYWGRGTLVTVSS
VL: B1 VL with T30K, R52K
B20: Antibody 33GL (germlined IgG) (antibody, V domains shown)
VH: B1 VH with R19S, R73K
VL: B1 VL with V3E, R36Q, R38K, S39P, Q41L, V44A, R52K, H78Q, T79A
notes: germlined IgG; also called Antibody 35 (provisional application)
B21: Antibody 1 (IgG) (antibody, V domains shown)
VH: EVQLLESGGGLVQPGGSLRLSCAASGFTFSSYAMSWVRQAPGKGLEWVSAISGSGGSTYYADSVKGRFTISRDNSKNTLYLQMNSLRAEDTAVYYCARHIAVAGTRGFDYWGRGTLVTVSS
VL: B1 VL with T30K, R52K
notes: also called parent antibody

What follows are binders tested against T1, cynomolgus IgE (recombinant chimaeric D12 variable region / cynomolgus IgE constant region) (cynomolgus monkey (constant region)) (assay: SPR, BIAcore 2000; cynomolgus IgE amine-coupled to CM5 chip, IgG as analyte, bivalent analyte model; geomean).
T1 construct: also called cyno IgE; cynomolgus IgE (in house HEK-EBNA derived)
Description: (§1) The binding affinity of purified IgG samples of a representative number of clones to human and cynomolgus IgE was determined by surface plasmon resonance using BIAcore 2000 biosensor (BIAcore AB) essentially as described by Karlsson et al 1991; Journal of Immunological Methods 145 (1-2) 229-240. In brief, purified human or cynomolgus IgE was covalently coupled to the surface of a CM5 sensor chip (BIAcore) using standard amine coupling reagents according to the manufacturer's instructions to provide a surface density of 100 RU. IgG samples prepared in HBS-EP buffer (BIAcore (AB), at a range of concentrations, between 250 nM and 15.6 nM were passed over the sensor chip surface. The surface was regenerated using 10 mM Glycine, pH 1.75 between each injection of antibody. The resulting sensorgrams were evaluated using BIA evaluation 3.1 software and fitted to a bivalent analyte model, to provide relative binding data.

T1 sequence (heavy, as listed by the source limits assumed, chain 1 of 2): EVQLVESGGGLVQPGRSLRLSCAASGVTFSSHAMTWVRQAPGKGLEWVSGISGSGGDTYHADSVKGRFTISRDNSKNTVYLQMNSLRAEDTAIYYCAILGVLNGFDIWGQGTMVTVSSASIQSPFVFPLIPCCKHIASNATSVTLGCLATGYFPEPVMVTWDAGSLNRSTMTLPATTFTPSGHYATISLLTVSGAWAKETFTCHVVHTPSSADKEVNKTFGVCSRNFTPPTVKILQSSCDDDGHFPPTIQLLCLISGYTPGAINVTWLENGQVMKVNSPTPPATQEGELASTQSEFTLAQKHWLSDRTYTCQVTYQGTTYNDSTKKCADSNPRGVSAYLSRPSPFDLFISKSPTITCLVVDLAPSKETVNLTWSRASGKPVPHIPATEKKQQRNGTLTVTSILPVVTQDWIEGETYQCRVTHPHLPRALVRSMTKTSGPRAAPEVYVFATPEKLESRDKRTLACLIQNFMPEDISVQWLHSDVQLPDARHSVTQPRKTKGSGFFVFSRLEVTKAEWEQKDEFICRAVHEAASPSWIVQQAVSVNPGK
T1 sequence (light, as listed by the source limits assumed, chain 2 of 2): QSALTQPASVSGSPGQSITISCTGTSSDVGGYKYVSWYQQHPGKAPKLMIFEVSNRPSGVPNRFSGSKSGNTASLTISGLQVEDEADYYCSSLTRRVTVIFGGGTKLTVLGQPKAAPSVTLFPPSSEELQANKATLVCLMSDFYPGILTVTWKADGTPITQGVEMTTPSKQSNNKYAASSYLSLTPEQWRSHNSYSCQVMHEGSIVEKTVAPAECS

Binder	Kd [nM]
B1	7

Each binder was assayed against T2, human IgEλ (U266 derived) (human, UniProt P01854 1-546) (assay: HTRF receptor-ligand competition, scFv titrated; Eu-cryptate human IgE (U266) binding to human FcεRI-Fc; geomean).
T2 construct: mature; full-length IgE purified from U266 cells (Ikeyama et al. 1986); labelled with europium cryptate in the HTRF assays; also called human IgE (U266-derived)
Description: (§2) Purified scFv were tested in a receptor-ligand binding HTRF® (Homogeneous Time-Resolved Fluorescence) assay format for inhibition of either human IgE (U266-derived [Ikeyama et. al. 1986. Molecular Immunology 23 (2); p159-167]) or cyno IgE (recombinant, see materials and methods) labelled with europium cryptate (CIS bio International 62EUSPEA), binding to human FcεR1-Fc (in house NS0 cell produced). Example scFv potency data is included in Table 5a
as §2, with “produced).” for “produced). Example scFv potency data is included in Table 5a”

Binder	IC50 [nM]
B2	10
B3	6
B4	14
B5	4
B6	8
B7	8
B8	3

Each binder was assayed against T3, human IgEλ (U266 derived) (human, UniProt P01854 1-546) in the same assay as above.
Description: as §2
as §2, with “produced).” for “produced). Example scFv potency data is included in Table 5a”

Binder	IC50 [nM]
B9	8
B10	5.4
B11	8
B12	6
B13	2
B14	7
B15	5

The binders below were run against T1, cynomolgus IgE (recombinant chimaeric …) (assay: HTRF receptor-ligand competition, scFv titrated; Eu-cryptate cynomolgus IgE binding to human FcεRI-Fc; geomean).
Description: as §2
as §2, with “produced).” for “produced). Example scFv potency data is included in Table 5a”

Binder	IC50 [nM]
B9	569
B3	138
B10	600
B11	359
B4	533
B12	356
B13	379
B14	398
B5	135
B15	237
B6	407
B7	473
B8	500

These binders were tested against T1, cynomolgus IgE (recombinant chimaeric …) (assay: cell-based or functional assay).

Binder	RBL-ER51 calcium signalling IC50 (nM) Geomean, cynomolgus IgE 100 ng/ml [nM]
B16	17
B17	4.5
B18	22
B1	5.4

These binders were tested against T3, human IgEλ (U266 derived) (assay: cell-based or functional assay).

Binder	RBL-ER51 calcium signalling IC50 (nM) Geomean, human IgE 25 ng/ml [nM]
B16	1.2
B19	1.5
B17	0.286
B18	0.223
B1	0.341

What follows are binders tested against T2, human IgEλ (U266 derived) (assay: cell-based or functional assay).

Binder	RBL-ER51 calcium signalling IC50 (nM) Human IgE Geomean [nM]
B20	0.197

These binders were tested against T4, human IgE (source not stated for the assay) (human, UniProt P01854-1 1-428) (assay: SPR, BIAcore 2000; IgE amine-coupled to CM5 chip, IgG as analyte, bivalent analyte model; geomean).
T4 construct: also called purified human IgE; IgE (Calbiochem or U266-derived)
Description: as §1

T4 sequence (P01854 other isoform, or with tags, fused parts or gaps): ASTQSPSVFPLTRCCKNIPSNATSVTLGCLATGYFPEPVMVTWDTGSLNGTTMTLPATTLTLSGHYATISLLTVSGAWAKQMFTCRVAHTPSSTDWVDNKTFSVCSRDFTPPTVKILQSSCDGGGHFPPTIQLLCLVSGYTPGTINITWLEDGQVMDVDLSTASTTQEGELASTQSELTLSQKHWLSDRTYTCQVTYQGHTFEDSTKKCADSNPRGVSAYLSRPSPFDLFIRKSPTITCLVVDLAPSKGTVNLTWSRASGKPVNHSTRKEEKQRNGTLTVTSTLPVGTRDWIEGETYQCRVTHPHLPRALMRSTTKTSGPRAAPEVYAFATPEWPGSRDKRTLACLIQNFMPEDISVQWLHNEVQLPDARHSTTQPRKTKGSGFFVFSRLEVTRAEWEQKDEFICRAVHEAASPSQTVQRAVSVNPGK

Binder	Kd [nM]
B19	1.3
B17	79
B18	26
B1	0.9
B20	0.142

Each binder was assayed against T4, human IgE (source not stated for the …) (assay: cell-based or functional assay).

Binder	RBL-ER51 calcium signalling IC50 [nM]
B21	267

Molecular target: T5, Cynomolgus Cε3-4 FLAG His10 (cynomolgus monkey)
T5 construct: also called cynomolgus IgE Cε3-Cε4 domain (in house HEK-EBNA derived)
T5 chain: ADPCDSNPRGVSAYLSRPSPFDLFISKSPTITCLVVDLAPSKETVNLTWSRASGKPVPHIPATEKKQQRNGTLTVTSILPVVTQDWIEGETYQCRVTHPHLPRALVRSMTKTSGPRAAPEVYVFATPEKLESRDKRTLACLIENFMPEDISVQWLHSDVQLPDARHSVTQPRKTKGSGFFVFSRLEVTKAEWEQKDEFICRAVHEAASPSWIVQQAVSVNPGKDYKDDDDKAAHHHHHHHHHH
Assay: DELFIA epitope competition; competitor vs biotinylated human IgE on immobilised IgG
Description: (§3) Purified IgG were adsorbed onto 96-well Maxisorp microtitre plates (Nunc) in PBS at a concentration which gave a significant signal when biotinylated human IgE was added at approximately its estimated KD for that particular IgG. Excess IgG was washed away with PBS-Tween (0.1% v/v) and the wells were blocked with PBS-Marvel (3% w/v) for 1 h. […] To this series, an equal volume of biotinylated human IgE at a concentration of approximately the KD was added (resulting in a series starting at a ratio of competitor antigen:biotinylated human IgE of approximately 1000:1). These mixtures were then transferred onto the blocked IgG and allowed to equilibrate for 1 h. Unbound antigen was removed by washing with PBS-Tween (0.1% v/v), while the remaining biotinylated human IgE was detected by streptavidin-Europium3+ conjugate (DELFIA® detection, PerkinElmer). Time-resolved fluorescence was measured at 620 nm on an EnVision plate reader (PerkinElmer). Fluorescence data were analysed using either Graphpad Prism or Microsoft Excel software.

Binder	binding result
B21	no binding
B20	no binding

What follows are binders tested against T6, human IgE Cε3-Cε4 domain, C-terminally tagged with FLAG His10 (human, UniProt P01854-1 209-428, limits assumed) in the same assay as above.
T6 construct: domain: Cε3-Cε4; secreted with murine IgG1 leader from HEK293-EBNA cells; also called human IgE Ce3-4; human IgE Cε3-Cε4 domain (in house HEK-EBNA derived)
Description: as §3

T6 sequence (P01854 other isoform, or with tags, fused parts or gaps limits assumed): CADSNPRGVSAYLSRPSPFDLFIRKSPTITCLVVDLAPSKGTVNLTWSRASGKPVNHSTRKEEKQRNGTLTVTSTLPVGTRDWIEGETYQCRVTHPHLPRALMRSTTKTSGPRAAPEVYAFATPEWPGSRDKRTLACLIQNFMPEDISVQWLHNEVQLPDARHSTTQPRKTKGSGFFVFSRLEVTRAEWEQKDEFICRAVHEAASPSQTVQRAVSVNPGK

Binder	binding result
B21	no binding
B20	no binding

From patent US20110212084A1 (AstraZeneca / MedImmune, published 2011)
